Source: patent US8501696
Values belong to the substance of their own block, whether it stands above or below them.

Columns and labels:
[1] = molecular target: human gp130 on the BAF3 cell surface (human) (UniProt P40189); assay: cell-based or functional assay
[2] = molecular target: Hyper-IL-6 (designer cytokine consisting of covalently linked IL-6 and sIL-6R) (human) (UniProt P08887); assay: cell-based or functional assay
Target sequence in this assay (P08887 20-323 limits assumed, chain 1 of 2): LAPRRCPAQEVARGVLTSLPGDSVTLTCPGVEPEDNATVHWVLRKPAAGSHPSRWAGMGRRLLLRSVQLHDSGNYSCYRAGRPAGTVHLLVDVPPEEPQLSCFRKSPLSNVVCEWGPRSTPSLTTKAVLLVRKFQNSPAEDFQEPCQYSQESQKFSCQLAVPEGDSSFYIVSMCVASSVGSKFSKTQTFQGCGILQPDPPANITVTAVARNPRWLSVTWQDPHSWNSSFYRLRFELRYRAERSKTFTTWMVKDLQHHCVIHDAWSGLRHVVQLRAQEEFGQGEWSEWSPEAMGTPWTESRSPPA
Target sequence in this assay (P05231 30-212 limits assumed, chain 2 of 2, further chain): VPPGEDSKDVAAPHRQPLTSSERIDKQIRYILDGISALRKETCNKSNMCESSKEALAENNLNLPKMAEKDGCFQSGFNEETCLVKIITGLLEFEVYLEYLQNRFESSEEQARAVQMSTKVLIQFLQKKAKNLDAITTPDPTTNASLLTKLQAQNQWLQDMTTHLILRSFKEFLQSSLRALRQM

[3] = molecular target: human IL-6/sIL-6R complex (interleukin-6 plus soluble interleukin-6 receptor) (human) (UniProt P05231); assay: cell-based or functional assay
[4] = molecular target: Hyper-IL-6 (designer cytokine consisting of covalently linked IL-6 and sIL-6R) (human) (UniProt P08887); assay: SPR, ProteOn XPR36, mutein immobilised, Hyper-IL-6 80 to 2.5 nM in flow, 25 C
Target sequence in this assay (P08887 20-323 limits assumed, chain 1 of 2): as the sequence (P08887 20-323 limits assumed, chain 1 of 2) above
Target sequence in this assay (P05231 30-212 limits assumed, chain 2 of 2, further chain): as the sequence (P05231 30-212 limits assumed, chain 2 of 2, further chain) above

[5] = molecular target: Hyper-IL-6 (designer cytokine consisting of covalently linked IL-6 and sIL-6R) (human) (UniProt P08887); assay: SPR; details: Fc fusion
Target sequence in this assay (P08887 20-323, chain 1 of 2): as the sequence (P08887 20-323 limits assumed, chain 1 of 2) above
Target sequence in this assay (P05231 30-212, chain 2 of 2, further chain): as the sequence (P05231 30-212 limits assumed, chain 2 of 2, further chain) above

Chain of human gp130 on the BAF3 cell surface (human) (P40189 23-918): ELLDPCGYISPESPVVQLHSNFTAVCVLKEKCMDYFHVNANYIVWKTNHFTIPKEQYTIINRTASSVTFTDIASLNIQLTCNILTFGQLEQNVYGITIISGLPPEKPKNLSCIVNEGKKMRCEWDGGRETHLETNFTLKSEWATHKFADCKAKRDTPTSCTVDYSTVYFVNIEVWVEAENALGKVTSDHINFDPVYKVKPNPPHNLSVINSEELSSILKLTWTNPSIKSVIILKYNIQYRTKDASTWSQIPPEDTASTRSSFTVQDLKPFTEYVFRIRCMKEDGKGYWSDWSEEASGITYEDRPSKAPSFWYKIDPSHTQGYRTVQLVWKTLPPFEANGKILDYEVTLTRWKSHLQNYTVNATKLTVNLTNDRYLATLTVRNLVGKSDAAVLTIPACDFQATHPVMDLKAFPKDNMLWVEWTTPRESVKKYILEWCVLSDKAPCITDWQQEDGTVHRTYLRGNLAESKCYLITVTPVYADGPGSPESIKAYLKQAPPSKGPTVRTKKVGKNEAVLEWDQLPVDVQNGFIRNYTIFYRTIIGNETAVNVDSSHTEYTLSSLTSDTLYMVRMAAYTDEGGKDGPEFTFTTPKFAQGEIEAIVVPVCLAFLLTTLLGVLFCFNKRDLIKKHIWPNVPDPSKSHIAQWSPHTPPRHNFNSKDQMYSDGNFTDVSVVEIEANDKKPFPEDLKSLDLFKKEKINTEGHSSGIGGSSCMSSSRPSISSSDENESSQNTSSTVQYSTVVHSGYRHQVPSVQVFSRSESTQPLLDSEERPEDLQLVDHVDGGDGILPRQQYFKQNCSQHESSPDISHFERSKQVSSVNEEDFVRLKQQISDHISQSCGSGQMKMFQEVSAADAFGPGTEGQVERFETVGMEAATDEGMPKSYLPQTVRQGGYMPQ
Chain of human IL-6/sIL-6R complex (interleukin-6 plus soluble interleukin-6 receptor) (human) (P05231 30-212 limits assumed, chain 1 of 2): as the sequence (P05231 30-212 limits assumed, chain 2 of 2, further chain) above
Chain of human IL-6/sIL-6R complex (interleukin-6 plus soluble interleukin-6 receptor) (human) (P08887 20-358 limits assumed, chain 2 of 2, further chain): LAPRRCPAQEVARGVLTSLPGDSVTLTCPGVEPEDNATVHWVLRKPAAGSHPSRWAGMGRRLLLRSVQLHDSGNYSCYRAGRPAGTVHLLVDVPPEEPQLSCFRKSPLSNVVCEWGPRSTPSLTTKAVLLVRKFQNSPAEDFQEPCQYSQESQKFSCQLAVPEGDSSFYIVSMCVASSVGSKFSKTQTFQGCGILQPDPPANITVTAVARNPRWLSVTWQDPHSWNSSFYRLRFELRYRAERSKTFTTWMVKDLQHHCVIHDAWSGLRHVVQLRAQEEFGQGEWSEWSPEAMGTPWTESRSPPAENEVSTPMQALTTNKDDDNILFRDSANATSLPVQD

- amount needed for the same proliferation signal in BAF3/gp130 cells, against human IL-6/sIL-6R [1]: 3 fold
Substance: murine IL-6/sIL-6R complex (from UniProt P08505 25-211; P22272 20-364) (ligand)

- IC50 of inhibition of BAF3/gp130 proliferation, fold lower than wild type sgp130Fc (Cell Titer-Blue assay) [2]: > 3 fold
- IC50 of inhibition of BAF3/gp130 proliferation, fold lower than wild type sgp130Fc (MTS assay) [3]: 3 fold
- fold increase of the affinity constant KD against wild type sgp130Fc [4]: 4 fold
Substance: sgp130Fc triple mutein Thr102Tyr/Gln113Phe/Asn114Leu (T102Y/Q113F/N114L) (from UniProt P40189 23-619) (Fc fusion)

Substance: sgp130Fc triple mutein Thr102Tyr/Gln113Phe/Asn114Leu (T102Y/Q113F/N114L) (from UniProt P40189 23-619)
- Kd [5]: 0.122 nM
